Assay [1] has as its target T1, human CCR4 (human, UniProt P51679 1-360).
T1 construct: whole, on cells; also called h.CCR4; HEK293T-h.CCR4
T1 sequence (looked up): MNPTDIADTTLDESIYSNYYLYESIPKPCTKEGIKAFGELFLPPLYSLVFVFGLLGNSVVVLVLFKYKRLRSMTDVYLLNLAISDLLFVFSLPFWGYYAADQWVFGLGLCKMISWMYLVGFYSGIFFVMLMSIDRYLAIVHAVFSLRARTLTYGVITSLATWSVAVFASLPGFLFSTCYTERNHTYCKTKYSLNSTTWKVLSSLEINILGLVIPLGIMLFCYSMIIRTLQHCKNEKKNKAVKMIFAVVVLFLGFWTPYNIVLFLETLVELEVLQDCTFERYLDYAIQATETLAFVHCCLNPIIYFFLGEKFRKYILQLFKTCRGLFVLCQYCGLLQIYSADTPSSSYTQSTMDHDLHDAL
Kind of assay: FACS on HEK293T-h.CCR4 cells. As to the method: Evaluate the specificity of anti-human CCR8 mouse monoclonal antibodies using FACS. The experimental steps are as follows: digest HEK293T-h.CCR4 cells, centrifuge to collect the cells, and wash three times with pre-cooled PBS. Resuspend the cells in 1% BSA (in PBS), adding 3×10\hat{ }5 cells in a volume of 50 μL to each well of a 96-well V-bottom plate. Dilute the antibody to be tested in 1% BSA (in PBS) to 20 μg/mL, take 50 μL per well, and add it to the cells, resulting in a final antibody concentration of 10 μg/mL. Mix and incubate at 4° C. for 1 hour. Centrifuge to collect the cells and wash three times with pre-cooled PBS. Resuspend the cells in 50 μL of 1% BSA (in PBS), add 1 μL of fluorescent secondary antibody to each well, mix, and incubate at 4° C. for 0.5 hours. Centrifuge to collect the cells, wash three times with pre-cooled PBS, resuspend the cells in 200 μL of PBS, and analyze them.

For assay [2], the target named is T2, human CCR8 (C-C chemokine receptor type 8) (human, UniProt P51685 1-355).
T2 construct: whole, on cells; also called h.CCR8; HEK293T-h.CCR8
Put plainly: FACS on HEK293T-h.CCR8 cells, mouse antibody.

Assay [3] addresses T3, cynomolgus monkey CCR8 (cynomolgus monkey, UniProt G7NYJ2 1-355).
T3 construct: whole, on cells; also called c.CCR8; HEK293T-c.CCR8
Kind of assay: FACS on HEK293T-c.CCR8 cells, mouse antibody.

The target in assay [4] is T2, human CCR8 (C-C chemokine receptor type …). Put plainly: FACS on HEK293T-h.CCR8 cells, test 2 (anti-human Alexa Fluor 647 secondary antibody). As to the method: (§1) The affinity of humanized monoclonal antibodies against human CCR8 was assessed using FACS. The experimental procedure was as follows: HEK293T-h.CCR8 cells were digested and collected by centrifugation, followed by three washes with pre-cooled PBS. The cells were resuspended in 1% BSA (in PBS), with 3×10\hat{ }5 cells added to each well of a 96-well V-bottom plate (50 μL per well). Prepare the antibody dilution series in 1% BSA (in PBS), starting from 40 μg/mL. Perform a 3-fold serial dilution across 10 concentration points. Add 50 μL per well to the cells, so that the final antibody concentration in the wells starts from 20 μg/mL. Mix thoroughly and incubate at 4° C. for 1 hour. The cells were collected by centrifugation, washed three times with pre-cooled PBS, resuspended in 50 μL 1% BSA (in PBS), and 1 μL of fluorescent secondary antibody (Biolegend, Catalog No.: 410708) was added to each well. The mixture was incubated at 4° C. for 30 minutes, followed by three washes with pre-cooled PBS. The cells were then resuspended in 200 μL PBS for detection.

The target is the same in assay [5]. Kind of assay: cell-based or functional assay.
For assay [6] the target is unchanged. Put plainly: FACS on HEK293T-h.CCR8 cells, test 1. The procedure:
as §1

Assay [7] has as its target T3, cynomolgus monkey CCR8. Put plainly: FACS on HEK293T-c.CCR8 cells.
The target of assay [8] is T1, human CCR4. Put plainly: FACS on HEK293T-h.CCR4 cells. The procedure:
The specificity of humanized monoclonal antibodies against human CCR4 was assessed using FACS. HEK293T-h.CCR4 cells were collected, washed, and resuspended in 1% BSA (in PBS). Each well of a 96-well V-bottom plate received 3×10\hat{ }5 cells, followed by the addition of the test antibodies at a final concentration of 20 μg/mL and incubation at 4° C. for one hour. After washing, 1 μL of fluorescent secondary antibody (Biolegend, Catalog No.: 410708) was added, and the mixture was incubated. The cells were washed and resuspended for detection using a flow cytometer (Beckman, Model: CytoFLEX).
The source holds these as a separate data set.

Where two headings read alike, the source gives them in different places.

T3 sequence (G7NYJ2 entry or part of it): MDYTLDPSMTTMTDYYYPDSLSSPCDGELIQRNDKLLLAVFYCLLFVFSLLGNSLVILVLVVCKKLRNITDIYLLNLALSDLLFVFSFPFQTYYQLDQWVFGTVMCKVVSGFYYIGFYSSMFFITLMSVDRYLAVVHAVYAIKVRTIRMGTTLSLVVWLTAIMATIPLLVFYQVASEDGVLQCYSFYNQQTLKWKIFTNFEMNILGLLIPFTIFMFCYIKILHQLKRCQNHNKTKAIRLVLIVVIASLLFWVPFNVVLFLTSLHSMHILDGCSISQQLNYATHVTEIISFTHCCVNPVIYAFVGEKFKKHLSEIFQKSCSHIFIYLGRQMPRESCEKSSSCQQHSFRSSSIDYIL
T2 sequence (P51685 whole entry): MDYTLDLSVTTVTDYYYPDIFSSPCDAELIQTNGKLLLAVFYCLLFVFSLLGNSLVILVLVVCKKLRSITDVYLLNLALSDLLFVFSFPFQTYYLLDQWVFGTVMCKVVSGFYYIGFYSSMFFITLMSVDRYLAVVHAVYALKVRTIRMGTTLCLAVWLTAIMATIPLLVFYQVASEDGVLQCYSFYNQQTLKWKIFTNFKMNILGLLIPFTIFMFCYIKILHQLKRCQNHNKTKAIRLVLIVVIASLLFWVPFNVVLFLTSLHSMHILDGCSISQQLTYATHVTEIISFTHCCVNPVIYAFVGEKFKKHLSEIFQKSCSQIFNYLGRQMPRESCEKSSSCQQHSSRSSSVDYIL

B1: 96F1C4 (anti-human CCR8 mouse monoclonal antibody) (antibody, V domains shown)
VH: QVQLQQSGAELVRPGASVTLSCKASGYTFTDYEMHWVKQTPVHGLEWIGAFDPKTGGTAYNQKFKGKAILTADKSSSTAYMELRSLTSEDSAVYYCARRRFFDVWGAGTTVTVSS
VL: DAVMTQTPLSLPVSLGDQASISCRSSQSLEHSNGNTYLHWYLQKPGQSPQLLIYRVSNRFSGVLDRFSGSGSGTDFTLKISRVEAEDLGVYFCLQVTHVPFTFGTGTKLEIK
notes: Mouse antibody purified from hybridoma supernatant
Regarding B1, in assay [1], the binding result is “no binding (tested: 10 µg/mL)”. The EC50 in assay [2] came to 0.16 nM.

B2: 13F3H6 (anti-human CCR8 mouse monoclonal antibody) (antibody, V domains shown)
VH: EVQLVESGGGLVRPKGSLKFSCAASGFTFNAYAMNWVRQAPGKGLEWVARIRTKSNNYATYYADSVKDRFTISRDDSENMLYLQMNNLKTEDTAIYYCVRHKKVREGYAMDYWGQGTSVTVSS
VL: DIVLTQSPASLVLSLGQRATISCRASKSVSTSGYTYMHWYQQKPGQPPKLLIYLASNLESGVPARFSGSGSGTDFTLNIHPVEEEDAATYYCQHSRELPFTFGSGTKLEIK
notes: as for B1
Regarding B2, the binding result in assay [1] is given as “no binding (tested: 10 µg/mL)”. For the same molecule, the EC50 in assay [3] stood at 0.288 µg/mL; in assay [2], 0.37 nM.

B3: 13F3H6-hz-eADCC (13F3H6-hz with ADCC-enhanced IgG1 Fc) (antibody)
heavy: EVQLVESGGGLVQPGESLRLSCAASGFTFNAYAMNWVRQAPGQGLEWVARIRTKSNNYATYYADSVKGRFTISRDDSKNTLYLEMNSLRAEDTAVYYCVRHKKVREGYAMDYWGQGTLVTVSSASTKGPSVFPLAPSSKSTSGGTAALGCLVKDYFPEPVTVSWNSGALTSGVHTFPAVLQSSGLYSLSSVVTVPSSSLGTQTYICNVNHKPSNTKVDKKVEPKSCDKTHTCPPCPAPELVGGPSVFLLPPKPKDTLMISRTPEVTCVVVDVSHEDPEVKFNWYVDGVEVHNAKTKPPEEQYNSTLRVVSVLTVLHQDWLNGKEYKCKVSNKALPAPIEKTISKAKGQPREPQVYTLPPSREEMTKNQVSLTCLVKGFYPSDIAVEWESNGQPENNYKTTPLVLDSDGSFFLYSKLTVDKSRWQQGNVFSCSVMHEALHNHYTQKSLSLSPGK
light: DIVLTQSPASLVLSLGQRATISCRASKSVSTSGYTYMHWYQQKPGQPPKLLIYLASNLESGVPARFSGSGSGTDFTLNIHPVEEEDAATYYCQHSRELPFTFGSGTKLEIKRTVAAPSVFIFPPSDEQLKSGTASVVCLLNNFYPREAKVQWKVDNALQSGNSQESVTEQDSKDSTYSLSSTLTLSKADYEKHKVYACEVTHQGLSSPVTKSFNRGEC
notes: also called 13F3H6-eADCC
Regarding B3, the EC50 in assay [4] stood at 0.0244 µg/mL. In assay [5], the “ADCC activity EC50” value was found to be 0.00117 µg/mL; the “ADCP activity EC50” value amounted to 0.0647 µg/mL; the “Inhibition rate of CCL1-mediated cell migration (%) at 50 µg/mL, BaF3-h.CCR8 cells, Transwell” value came to 73.5%.

B4: 96F1C4-hz (humanized anti-human CCR8 monoclonal antibody, human IgG1) (antibody, V domains shown)
VH: QVQLVESGAEVKKPGSSVKVSCKASGYTFTDYEMHWVRQAPGQGLEWMGAFDPKTGGTAYAQKFQGRVTLTADKSTSTAYMELSSLRSEDTAVYYCARRRFFDVWGQGTLVTVSS
VL: DAVMTQTPLSLSVTPGQPASISCRSSQSLEHSNGNTYLHWYLQKPGQSPQLLIYRVSNRFSGVPDRFSGSGSGTDFTLKISRVEAEDVGVYYCLQVTHVPFTFGQGTKVEIKR
notes: Built in the pTT5-h.IgG1 vector
The molecule B4 showed an EC50 in assay [6] of 0.0796 µg/mL. The binding result in assay [7] is given as “no binding”. For the same molecule, in assay [5], the “ADCC activity EC50” value stood at 0.0052 µg/mL; the “ADCP activity EC50” value was found to be 0.107 µg/mL; the “Inhibition rate of CCL1-mediated cell migration (%) at 50 µg/mL, BaF3-h.CCR8 cells, Transwell” value worked out at 60.1%. Further, the binding result in assay [8] is recorded as “no binding (tested: 20 µg/mL)”.

B5: 76H1F11-hz (humanized anti-human CCR8 monoclonal antibody, human IgG1) (antibody, V domains shown)
VH: QVQLVESGAEVKKPGSSVKVSCKASGYTFTDYEIHWVRQAPGQGLEWMGAIKPETGGTAYAQKFQGRVTLTSDKSTSTAYMELSSLRSEDTAVYYCTRRRYFDVWGQGTLVTVSS
VL: DAVMTQTPLSLSVTPGQPASISCRSSQSLEHSDGITYLHWYLQKPGQSPQLLIYRVSNRFSGVPDRFSGSGSGTDFTLKISRVEAEDVGVYYCLQVTHVPFTFGQGTKVEIKR
As for B5, in assay [6], a half-maximal response (EC50) required 0.322 µg/mL. The binding result in assay [7] was “no binding”; in assay [8] it was “no binding (tested: 20 µg/mL)”. For the same molecule, the “ADCC activity EC50” value in assay [5] stood at 0.0148 µg/mL.
